Source: US20210388087A1 (Chugai, published 2021)
Residue numbers refer to the chain shown, from its start.

B1: Du115/DUL008 (antibody, V domains shown)
VH: QVQLVESGGGLVQPGRSLRLSCAASGFTFSNAWMHWVRQAPGKGLEWVAQIKDKANSYNTYYAPSVKGRFTISRDDSKNSIYLQMNSLKTEDTAVYYCRYVHYGSSYGFLFAGYGVDAWGQGTTVTVSS
VL: DIVMTQSPLSLPVTPGEPASISCQSSEELLHANRKTYLHWYQQKPGQAPRLLIYKVQNRFSGVPDRFSGSGSGTDFTLKISRVEAEDVGVYYCAQGTATPFTFGQGTKLEIK
B2: dBBDu197 (antibody, V domains shown)
VH: QVQLVESGGGLVQPGRSLRLSCAASGFTFSNAWMHWVRQAPGKGLEWVAQIKDRSNAYAAYYAPSVKGRFTISRDDSKNSIYLQMNSLKTEDTAVYYCHYVHYASASTVLPAFGVDAWGQGTTVTVSS
VL: DIVMTQSPLSLPVTPGEPASISCRSSQSLVHSNRNTYLHWYQQKPGQAPRLLIYKVSNRFSGVPDRFSGSGSGTDFTLKISRVEAEDVGVYYCGQGTQVPYTFGQGTKLEIK
notes: Human IgG1; light chain GLS3000 (kappa)
B3: dBBDu217 (antibody, V domains shown)
VH: QVQLVESGGGLVQPGRSLRLSCAASGFTFSNAWMHWVRQAPGKGLEWVAQIKDRQQGYATYYAPSVKGRFTISRDDSKNSIYLQMNSLKTEDTAVYYCRFVHYHLAGYGYYGVDAWGQGTTVTVSS
VL: B2 VL
notes: as for B2
B4: dBBDu174 (antibody, V domains shown)
VH: QVQLVESGGGLVQPGRSLRLSCAASGFTFSSAWMHWVRQAPGKGLEWVAQIKDRASAYNAYYAESVKGRFTISRDDSKNSIYLQMNSLKTEDTAVYYCRYVHYPSYVSFLPYYGVDAWGQGTTVTVSS
VL: B2 VL
notes: as for B2
B5: dBBDu139 (antibody, V domains shown)
VH: QVQLVESGGGLVQPGRSLRLSCAASGFTFSNAWMHWVRQAPGKGLEWVAQIKDRGNAYNAYYAESVKGRFTISRDDSKNSIYLQMNSLKTEDTAVYYCRFVHYRHPLLHIQYGVDAWGQGTTVTVSS
VL: B2 VL
notes: as for B2
B6: dBBDu183 (antibody, V domains shown)
VH: B2 VH with R54K, S55G
VL: B2 VL
notes: Human IgG1; light chain GLS3000 (kappa), before light chain maturation
B7: dBBDu202 (antibody, V domains shown)
VH: B2 VH with R54K, S55G, A104S, S105A
VL: B2 VL
notes: as for B2
B8: dBBDu173 (antibody, V domains shown)
VH: B2 VH with R54K, S55G, A57L, S107G, T108G, V109G, P111S, F113Y
VL: B2 VL
notes: as for B2
B9: dBBDu186 (antibody, V domains shown)
VH: B2 VH with A57Q, A60T, S105Q
VL: B2 VL
notes: as for B2
B10: dBBDu199 (antibody, V domains shown)
VH: B2 VH with R54K, S55Q, N56S, A57G, A59N, A60T
VL: B2 VL
notes: as for B2
B11: dBBDu189 (antibody, V domains shown)
VH: B2 VH with V48I, A57Q, A60T, S105Q, T108S, V109L, A112S
VL: B2 VL
notes: as for B2
B12: dBBDu196 (antibody, V domains shown)
VH: B2 VH with S55G, A59N, P64E
VL: B2 VL
notes: as for B2
B13: dBBDu205 (antibody, V domains shown)
VH: B2 VH with N56Q, A57L
VL: B2 VL
notes: as for B2
B14: dBBDu179 (antibody, V domains shown)
VH: B2 VH with A57Q, A60T
VL: B2 VL
notes: as for B2
B15: dBBDu193 (antibody, V domains shown)
VH: B2 VH with A57Q, A60T, A104S, S105A, V109L, A112S
VL: B2 VL
notes: as for B2
B16: dBBDu167 (antibody, V domains shown)
VH: B2 VH with R54K, S55G, A57L, S107G, T108G, V109G, A112G
VL: B2 VL
notes: as for B2
B17: dBBDu222 (antibody, V domains shown)
VH: QVQLVESGGGLVQPGRSLRLSCAASGFTISSAWMHWVRQAPGKGLEWVAQIKDRANGYAAYYAPSVKGRFTISRDDSKNSIYLQMNSLKTEDTAVYYCRYVHYATAYDGFYGFGVDAWGQGTTVTVSS
VL: B2 VL
notes: as for B2
B18: dBBDu204 (antibody, V domains shown)
VH: B2 VH with A57N, A60T, P64E
VL: B2 VL
notes: as for B2
B19: dBBDu189/L112 (antibody, V domains shown)
VH: B2 VH with V48I, A57Q, A60T, S105Q, T108S, V109L, A112S
VL: B1 VL with Q24T, S26D, E27Q, L30V, A32M, K35H, Q57Y, S61P, A98S, T99V
notes: IgG format; constant regions not specified
B20: dBBDu183/L063 (antibody, V domains shown)
VH: B2 VH with R54K, S55G
VL: B2 VL with S28E, S32T, N35H, S61P, G94A, Y101F
notes: as for B19
B21: dBBDu189/L116 (antibody, V domains shown)
VH: B2 VH with V48I, A57Q, A60T, S105Q, T108S, V109L, A112S
VL: B1 VL with Q24S, E27Q, L30V, K35Q, T36I, Q57A, S61P, A98Q, T99V
notes: as for B19
B22: dBBDu186/L096 (antibody, V domains shown)
VH: B2 VH with A57Q, A60T, S105Q
VL: B2 VL with S25T, S28E, S32I, N35Y, T36I, Y37F, S57Y, S61Q, G94A, Q98S
notes: as for B19
B23: dBBDu183/L072 (antibody, V domains shown)
VH: B2 VH with R54K, S55G
VL: B2 VL with R24Q, S25A, S28E, S32M, S61P, G94A, Q98S, Y101F
notes: IgG format; also called H183L072
B24: dBBDu183/L067 (antibody, V domains shown)
VH: B2 VH with R54K, S55G
VL: B1 VL with E28S, L30V, A32V, K35H, Q57Y, S61P, A98S, T99V
notes: as for B19
B25: dBBDu217 (antibody, human IgG1, V domains shown)
VH: B3 VH
VL: B2 VL
notes: human IgG1; GLS3000 light chain
B26: dBBDu197 (antibody, human IgG1, V domains shown)
VH: B2 VH
VL: B2 VL
notes: as for B25
B27: dBBDu139 (antibody, human IgG1, V domains shown)
VH: B5 VH
VL: B2 VL
notes: as for B25

Each binder was assayed against T1, human CD137-Fc (human, biotin-labeled) (assay: bead ELISA on biotin-human CD137-Fc, 125 vs 0 pmol free CD3e peptide;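 also: target captured on streptavidin-coated magnetic beads, signal read as fluorescence 2 min after adding APS-5 substrate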).
T1 construct: if 90 already holds the Fc, drop the second piece; also called biotin-labeled human CD137 fused to human IgG1 Fc fragment; biotin-human CD137-Fc; not shown: human IgG1 Fc fragment

Row | Signal decrease [%] | Binder
1 | 97 | B1
2 | 96.1 | B2
3 | 87.3 | B3
4 | 60.8 | B4
5 | 79.6 | B5
6 | 93 | B6
7 | 84 | B7
8 | 68.8 | B8
9 | 92.8 | B9
10 | 94.2 | B10
11 | 92 | B11
12 | 93.3 | B12
13 | 95.2 | B13
14 | 95.7 | B14
15 | 87.5 | B15
16 | 92.5 | B16
17 | 55 | B17
18 | 95.7 | B18

Target: T2, cyno CD137 (cynomolgus monkey, UniProt Q07011 24-186 (human entry), limits assumed)
T2 construct: also called cynomolgus monkey CD137
T2 chain: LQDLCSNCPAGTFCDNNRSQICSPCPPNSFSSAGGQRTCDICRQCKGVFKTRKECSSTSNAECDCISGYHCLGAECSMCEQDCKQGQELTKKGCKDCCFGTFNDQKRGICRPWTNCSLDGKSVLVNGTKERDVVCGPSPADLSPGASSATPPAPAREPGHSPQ
Assay: SPR Biacore T200, IgG captured on protein A, 25 C;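 also: antigens diluted in ACES running buffer at pH 7.4 were flowed over antibodies held on a CM3 chip bearing amine-coupled protein A, with buffer alone serving as blank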

Row | Kd [µM] | koff [s⁻¹] | kon [M⁻¹ s⁻¹] | Binder
19 | 5.76 | 0.0286 | 4980 | B19
20 | 3.12 | 0.00457 | 1470 | B20
21 | 11.1 | 0.00823 | 744 | B21
22 | 205 | 0.00223 | – | B22
23 | 4.87 | 0.00593 | 1220 | B23
24 | 6.2 | 0.00813 | 1310 | B24

Each binder was assayed against human CD3 ed (human, UniProt P07766 23-126; P04234 22-105, limits assumed) (assay: SPR Biacore T200, IgG captured on protein A, 25 C;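 also: antigens diluted in ACES running buffer at pH 7.4 were flowed over antibodies held on a CM3 chip bearing amine-coupled protein A, with buffer alone serving as blank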).

Row | Kd [µM] | koff [s⁻¹] | kon [M⁻¹ s⁻¹] | Binder
25 | 0.331 | 0.01 | 30300 | B19
26 | 0.276 | 0.0157 | 56900 | B20
27 | 0.209 | 0.00434 | 20800 | B21
28 | 9.11 | 0.102 | 11200 | B22
29 | 0.217 | 0.00785 | 36100 | B23
30 | 0.217 | 0.0193 | 88900 | B24

What follows are binders tested against T3, biotin-labeled human CD137 fused to human IgG1 Fc fragment (human, UniProt Q07011 24-186, biotin-labeled) (assay: bead ELISA, 1250 ng IgG, S/N over biotin-human Fc).
T3 construct: also called human CD137-Fc; biotin-human CD137-Fc; not shown: human IgG1 Fc fragment

Row | binding result | Binder
31 | binds | B25
32 | binds | B26
33 | binds | B27

What follows are binders tested against T1, human CD137-Fc (assay: bead ELISA on biotin-human CD137-Fc, 0 pmol free CD3e peptide).

Row | ELISA signal | Binder
34 | 86200 | B1
35 | 54400 | B2
36 | 19100 | B3
37 | 4800 | B4
38 | 9440 | B5
39 | 34000 | B6
40 | 12100 | B7
41 | 6540 | B8
42 | 34800 | B9
43 | 40900 | B10
44 | 27400 | B11
45 | 33100 | B12
46 | 45200 | B13
47 | 61000 | B14
48 | 18200 | B15
49 | 25700 | B16
50 | 7190 | B17
51 | 43700 | B18

What follows are binders tested against T1, human CD137-Fc (assay: bead ELISA on biotin-human CD137-Fc with 125 pmol/well free CD3e peptide as competitor;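 also: Streptavidin-coated magnetic beads in blocking buffer as the capture surface, well signal read as fluorescence 2 min after adding APS-5 substrate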).

Row | ELISA signal | Binder
52 | 2620 | B1
53 | 2110 | B2
54 | 2420 | B3
55 | 1880 | B4
56 | 1920 | B5
57 | 2370 | B6
58 | 1930 | B7
59 | 2040 | B8
60 | 2500 | B9
61 | 2370 | B10
62 | 2190 | B11
63 | 2220 | B12
64 | 2190 | B13
65 | 2620 | B14
66 | 2280 | B15
67 | 1940 | B16
68 | 3240 | B17
69 | 1880 | B18
